Sequences and labels used below:
B2: MeaB from Methylobacterium extorquens (natural protein, UniProt Q8RPA0 1-329, looked up)
chain: MSATLPDMDTLRERLLAGDRAALARAITLAESRRADHRAAVRDLIDAVLPQTGRAIRVGITGVPGVGKSTTIDALGSLLTAAGHKVAVLAVDPSSTRTGGSILGDKTRMARLAIDRNAFIRPSPSSGTLGGVAAKTRETMLLCEAAGFDVILVETVGVGQSETAVADLTDFFLVLMLPGAGDELQGIKKGILELADMIAVNKADDGDGERRASAAASEYRAALRILTPPSATWTPPVVTISGLHGKGLDSLWSRIEGHRSKLTATGEIAGKRREQDVKWMWALVHERLHQRLVGSAEVRQATAEAERAVAGGEHSPAAGADAIATLIGL
notes: MeaB, G-protein chaperone of methylmalonyl-CoA mutase, Methylobacterium extorquens, WP_003597297.1; 329 residues (Met1 to Leu329 of 329 named in the model of chain B); Synthetic gene in pET28a at NdeI and XhoI; also called G-protein metallochaperone MeaB; source: E. coli Bl21 T7 Express, purified (Ni-NTA, Superdex 200 SEC)

For data set [1], the target named is B2. The data set can be described thus: cell-based or functional assay.
Data set [2] concerns the molecule itself. As to the kind of experiment: SEC; analytical Superdex200 Increase 10/300 GL; each protein alone (50 µM MeaB); apparent molecular weights against gel filtration standards; 50 mM HEPES pH 7.5, 500 mM NaCl.
For data set [3], the target named is B2. The data set can be described thus: SEC; analytical Superdex200 Increase 10/300 GL; 50 µM MeaB and 100 µM MeMCMcbl preincubated with 500 µM GMPPCP and 1 mM MgCl2; 50 mM HEPES pH 7.5, 500 mM NaCl; peaks identified by SDS-PAGE. Particulars: both partners purified. For orientation: Size exclusion chromatography separates by hydrodynamic size, large species first.

The results in this text go back to PMC9974510, “Structure of metallochaperone in complex with the cobalamin-binding domain of its target mutase provides insight into cofactor delivery” (Proceedings of the National Academy of Sciences of the …, 2023).

B1: Cbl-binding domain of the alpha subunit of Methylobacterium extorquens methylmalonyl-CoA mutase (domain or fragment, UniProt C5AV67 545-712, looked up)
chain: RAQIRSISGVYKREVGGMSPVVEKVRGLVEAFEENDGRRPRILVAKMGQDGHDRGQKVIASAFADLGFDVDIGPLFATPDEAARQAVENDVHIVGVSSLAAGHLTLVPELKAALKQEGRDDVMIVVGGVIPPGDYDALYAAGASAIFPPGTVIAEAAVNLLGELNTRL
notes: alpha subunit has 712 residues; Two constructs were made (N-terminal HisTag, of low solubility; C-terminal HisTag in pET28a at NcoI and XhoI); The crystal holds the C-terminal HisTag form (residues 713 to 714 of the tag modelled in chain C); the same form is surmised for the SEC and GTPase experiments; also called MeMCMcbl; MCMcbl; source: E. coli Bl21 T7 Express, purified (Ni-NTA, Superdex75 …)
As to B1, in data set [1], the “GTPase activity of MeaB (2 µM) with MeMCMcbl (4 µM), 500 µM GTP: inorganic phosphate produced, against MeaB alone” value is 25 fold. The “stoichiometry N” value in data set [2] was 2; in data set [3] it was 1 MeMCMcbl dimer per MeaB dimer.
For B2, the “stoichiometry N” value in data set [2] was determined as 2.

For orientation: stoichiometry N means the number of molecules, sites or subunits per partner or assembly.
